In patent publication US20240034774A1 (Gilead, published 2024):
Residue numbers refer to the chain shown, from its start.

Experiments:
gp120 SHIV SF162 P3 = gp120 SHIV SF162 P3 (SHIV SF162 P3); assay: single-point ELISA at EC50 conc. of A-1
gp120 CAAN = gp120 CAAN (HIV (CAAN)); assay: single-point ELISA at EC50 conc. of A-1
gp120 Bal = gp120 Bal (HIV (Bal)); assay: single-point ELISA at EC50 conc. of A-1
BSA = BSA (UniProt P02769 25-607); assay: single-point ELISA, BSA control

B1: 1.31.33-1 (antibody, human IgG1, kappa)
heavy: QVQLVQSGAEVTKPGASVRVSCEASGYNIRDYFIHWWRQAPGQGLQWVGWINPKTGQPNNPRQFQGRVSLTRHASWDFDTFSFYMDLKALRSDDTATYFCARQRSDYWDFDVWGSGTQVTVSSASTKGPSVFPLAPSSKSTSGGTAALGCLVKDYFPEPVTVSWNSGALTSGVHTFPAVLQSSGLYSLSSVVTVPSSSLGTQTYICNVNHKPSNTKVDKKVEPKSCDKTHTCPPCPAPELLAGPDVFLFPPKPKDTLMISRTPEVTCVVVDVSHEDPEVKFNWYVDGVEVHNAKTKPREEQYNSTYRVVSVLTVLHQDWLNGKEYKCKVSNKALPLPEEKTISKAKGQPREPQVYTLPPSREEMTKNQVSLTCLVKGFYPSDIAVEWESNGQPENNYKTTPPVLDSDGSFFLYSKLTVDKSRWQQGNVFSCSVLHEALHSHYTQKSLSLSPGK
light: DIQMTQSPSSLSASVGDTVTITCQANGYLNWYQQRRGKAPKLLIYDGSNLERGVPSRFSGRRWGQEYTLTISSLQPEDIATYFCQVYEFVVPGTNLDIKRTVAAPSVFIFPPSDEQLKSGTASVVCLLNNFYPREAKVQWKVDNALQSGNSQESVTEQDSKDSTYSLSSTLTLSKADYEKHKVYACEVTHQGLSSPVTKSFNRGEC
gp120 SHIV SF162 P3
  ELISA A450: 0.74 A450
gp120 CAAN
  ELISA A450: 0.86 A450
gp120 Bal
  ELISA A450: 0.89 A450
BSA
  ELISA A450: 0.06 A450

B2: 1.32.32-1 (antibody, human IgG1, kappa)
heavy: B1 heavy with T97V, S105T
light: B1 light with N49K, V91T, N95R, I98L
gp120 SHIV SF162 P3
  ELISA A450: 0.7 A450
gp120 CAAN
  ELISA A450: 0.9 A450
gp120 Bal
  ELISA A450: 0.89 A450
BSA
  ELISA A450: 0.08 A450

B3: 1.31.34-1 (antibody, human IgG1, kappa)
heavy: B1 heavy
light: B1 light with V91T, N95R
gp120 SHIV SF162 P3
  ELISA A450: 0.82 A450
gp120 CAAN
  ELISA A450: 0.86 A450
gp120 Bal
  ELISA A450: 0.76 A450
BSA
  ELISA A450: 0.06 A450

B4: 1.32.31-1 (antibody, human IgG1, kappa)
heavy: B1 heavy with T97V, S105T
light: B1 light with N49K, I98L
gp120 SHIV SF162 P3
  ELISA A450: 0.66 A450
gp120 CAAN
  ELISA A450: 0.9 A450
gp120 Bal
  ELISA A450: 0.95 A450
BSA
  ELISA A450: 0.07 A450

B5: 1.32.33-1 (antibody, human IgG1, kappa)
heavy: B1 heavy with T97V, S105T
light: B1 light
gp120 SHIV SF162 P3
  ELISA A450: 0.71 A450
gp120 CAAN
  ELISA A450: 0.68 A450
gp120 Bal
  ELISA A450: 0.93 A450
BSA
  ELISA A450: 0.06 A450

B6: 1.32.1-1 (antibody, human IgG1, kappa)
heavy: B1 heavy with T97V, S105T
light: B1 light with N49K, T68N, S72N, S73N, N95R, I98L
gp120 SHIV SF162 P3
  ELISA A450: 0.91 A450
gp120 CAAN
  ELISA A450: 0.83 A450
gp120 Bal
  ELISA A450: 0.93 A450
BSA
  ELISA A450: 0.06 A450

B7: 1.33.33-1 (antibody, human IgG1, kappa)
heavy: B1 heavy with T12K, E23K, S69T
light: B1 light
gp120 SHIV SF162 P3
  ELISA A450: 0.97 A450
gp120 CAAN
  ELISA A450: 1.06 A450
gp120 Bal
  ELISA A450: 1.09 A450
BSA
  ELISA A450: 0.07 A450

B8: 1.33.1-1 (antibody, human IgG1, kappa)
heavy: B1 heavy with T12K, E23K, S69T
light: B1 light with N49K, T68N, S72N, S73N, N95R, I98L
gp120 SHIV SF162 P3
  ELISA A450: 0.96 A450
gp120 CAAN
  ELISA A450: 0.98 A450
gp120 Bal
  ELISA A450: 0.88 A450
BSA
  ELISA A450: 0.06 A450

B9: 1.33.31-1 (antibody, human IgG1, kappa)
heavy: B1 heavy with T12K, E23K, S69T
light: B1 light with N49K, I98L
gp120 SHIV SF162 P3
  ELISA A450: 0.89 A450
gp120 CAAN
  ELISA A450: 1.18 A450
gp120 Bal
  ELISA A450: 0.92 A450
BSA
  ELISA A450: 0.07 A450

B10: 1.33.32-1 (antibody, human IgG1, kappa)
heavy: B1 heavy with T12K, E23K, S69T
light: B1 light with N49K, V91T, N95R, I98L
gp120 SHIV SF162 P3
  ELISA A450: 0.98 A450
gp120 CAAN
  ELISA A450: 1.13 A450
gp120 Bal
  ELISA A450: 0.98 A450
BSA
  ELISA A450: 0.07 A450

B11: 1.32.34-1 (antibody, human IgG1, kappa)
heavy: B1 heavy with T97V, S105T
light: B1 light with V91T, N95R
gp120 SHIV SF162 P3
  ELISA A450: 0.71 A450
gp120 CAAN
  ELISA A450: 0.86 A450
gp120 Bal
  ELISA A450: 0.81 A450
BSA
  ELISA A450: 0.06 A450
